Experimental data from patent US20230031262A1, “TREATMENT OF MILD TRAUMATIC BRAIN INJURY” (OXEIA BIOPHARMACEUTICALS, INC., priority 2019, published 2023).
Where no end group is shown, it is not given here. The star is where a group is joined. Octanoyl = CCCCCCCC(=O)*

Legend:
[1] = stability of reconstituted OXE-103 drug product on storage; assay type: physicochemical; settings: reconstituted OXE-103 for SC administration 14 mg in 5 mL multi-use vials
Method: OXE-103 drug product, placebo, and diluent are stored refrigerated between 2° C. to 8° C. (35.6° F. to 46.4° F.). Reconstituted OXE-103 for SC administration 14 mg (in 5 mL multi-use vials) is stable for up to 14 days at 10° C. or for up to 3 days when stored at 25° C./1000 Lux. The reconstituted drug product (and placebo) is stored refrigerated at 2° C. to 8° C. (35.6° F. to 46.4° F.).

[2] = in vivo; cited from earlier work
[3] = in vivo; cited from earlier work; remark: listed apart in the source
[4] = in vivo; cited from earlier work; remark: listed apart in the source

Substance: ghrelin (GSS(Octanoyl)FLSPEHQRVQQRKESKKPPAKLQPR; UniProt Q9UBU3 24-51, looked up) [OXE-103]
- stable for up to (reconstituted, storage time) ([1]; at 10° C.): up to 14 days
- stable for up to (reconstituted, storage time) ([1]; stored at 25° C./1000 Lux): up to 3 days
- serum half-life [2]: about 30 minutes
- adverse effects of long term use [3]: increased appetite, weight gain, and adiposity
- safety [4]: quite safe
